In PMC2897852 (PLoS ONE, 2010):

B1: His-ClpX (M. tuberculosis ClpX, pRD21) (natural protein)
chain: not shown
notes: also called his-clpXTB; recombinant His-ClpX fusion protein
B2: purified FtsZ (M. tuberculosis) as used in the solid-phase binding and polymerization assays (natural protein)
chain: MTPPHNYLAVIKVVGIGGGGVNAVNRMIEQGLKGVEFIAINTDAQALLMSDADVKLDVGRDSTRGLGAGADPEVGRKAAEDAKDEIEELLRGADMVFVTAGEGGGTGTGGAPVVASIARKLGALTVGVVTRPFSFEGKRRSNQAENGIAALRESCDTLIVIPNDRLLQMGDAAVSLMDAFRSADEVLLNGVQGITDLITTPGLINVDFADVKGIMSGAGTALMGIGSARGEGRSLKAAEIAINSPLLEASMEGAQGVLMSIAGGSDLGLFEINEAASLVQDAAHPDANIIFGTVIDDSLGDEVRVTVIAAGFDVSGPGRKPVMGETGGAHRIESAKAGKLTSTLFEPVDAVSVPLHTNGATLSIGGDDDDVDVPPFMRR
notes: also called FtsZTB

How the values were obtained:
[1] = molecular target: the molecule itself; experiment: SEC; purified ClpX on a Superdex 200 10/300 GL column; data not shown
[2] = molecular target: B1; experiment: ELISA; conditions: both partners purified

## B1
[1]
  stoichiometry N: 6

## B2
[2]
  binding result: binds
